Publication PMC7196598, “Architecture of the herpesvirus genome-packaging complex and implications for DNA translocation” (Protein & Cell, 2020)
“And” between values parts separate entries of the source, which are not always exact repeats. Equal entries are not always repeated.

How the values were obtained:
[1] = target: the molecule itself; experiment: cryo-EM structure; purified terminase complex (1 mg/mL), apo or with ADP•BeF3 and pac2 DNA (58 bp; DNA not visible); hexameric and dodecameric assemblies, block-based reconstruction of one terminase complex
[2] = target: the molecule itself; experiment: AUC; sedimentation velocity, Beckman XL-I, 20 °C, 20 mmol/L Hepes, 300 mmol/L NaCl, pH 7.5, A280 ~0.8, 20,000 rpm; shown with SDS-PAGE and electron microscopy (Fig. 1B)

Protein | binding result [1] | stoichiometry N [2]
HSV1-pUL15 (residues 1–737), ATPase/terminase subunit of the herpesvirus terminase complex (natural protein, pUL15 of herpes simplex virus 1 (HSV1), tripartite terminase subunit 3; construct printed as residues 1–737, while the results say pUL15 is 735 residues in length (domains end at 735); Cloned in pFastBac-HTA; No tag cleavage is described; also called ATPase/terminase pUL15; source: Sf9, co-infected with two recombinant baculoviruses (co-expressed with pUL28 and pUL33), purified (Ni-NTA, Superose …)) MFGQQLASDVQQYLERLEKQRQLKVGADEASAGLTMGGDALRVPFLDFATATPKRHQTVVPGVGTLHDCCEHSPLFSAVARRLLFNSLVPAQLKGRDFGGDHTAKLEFLAPELVRAVARLRFKECAPADVVPQRNAYYSVLNTFQALHRSEAFRQLVHFVRDFAQLLKTSFRASSLTETTGPPKKRAKVDVATHGRTYGTLELFQKMILMHATYFLAAVLLGDHAEQVNTFLRLVFEIPLFSDAAVRHFRQRATVFLVPRRHGKTWFLVPLIALSLASFRGIKIGYTAHIRKATEPVFEEIDACLRGWFGSARVDHVKGETISFSFPDGSRSTIVFASSHNTNGIRGQDFNLLFVDEANFIRPDAVQTIMGFLNQANCKIIFVSSTNTGKASTSFLYNLRGAADELLNVVTYICDDHMPRVVTHTNATACSCYILNKPVFITMDGAVRRTADLFLADSFMQEIIGGQARETGDDRPVLTKSAGERFLLYRPSTTTNSGLMAPDLYVYVDPAFTANTRASGTGVAVVGRYRDDYIIFALEHFFLRALTGSAPADIARCVVHSLTQVLALHPGAFRGVRVAVEGNSSQDSAVAIATHVHTEMHRLLASEGADAGSGPELLFYHCEPPGSAVLYPFFLLNKQKTPAFEHFIKKFNSGGVMASQEIVSATVRLQTDPVEYLLEQLNNLTETVSPNTDVRTYSGKRNGASDDLMVAVIMAIYLAAQAGPPHTFAPITRVS | binds | –
herpesvirus terminase complex (heterotrimer of pUL15, pUL28 and pUL33), wild type (complex, pUL15 of herpes simplex virus 1 (HSV1); construct printed as residues 1–737, while the results say pUL15 is 735 residues in length; pUL28 of herpes simplex virus 1 (HSV1); construct printed as residues 1–787; pUL33 of herpes simplex virus 1 (HSV1); construct printed as residues 1–132; One heterotrimer is one subunit of the hexameric ring; the hexamer and dodecamer are written as self-association …) chain 1: MFGQQLASDVQQYLERLEKQRQLKVGADEASAGLTMGGDALRVPFLDFATATPKRHQTVVPGVGTLHDCCEHSPLFSAVARRLLFNSLVPAQLKGRDFGGDHTAKLEFLAPELVRAVARLRFKECAPADVVPQRNAYYSVLNTFQALHRSEAFRQLVHFVRDFAQLLKTSFRASSLTETTGPPKKRAKVDVATHGRTYGTLELFQKMILMHATYFLAAVLLGDHAEQVNTFLRLVFEIPLFSDAAVRHFRQRATVFLVPRRHGKTWFLVPLIALSLASFRGIKIGYTAHIRKATEPVFEEIDACLRGWFGSARVDHVKGETISFSFPDGSRSTIVFASSHNTNGIRGQDFNLLFVDEANFIRPDAVQTIMGFLNQANCKIIFVSSTNTGKASTSFLYNLRGAADELLNVVTYICDDHMPRVVTHTNATACSCYILNKPVFITMDGAVRRTADLFLADSFMQEIIGGQARETGDDRPVLTKSAGERFLLYRPSTTTNSGLMAPDLYVYVDPAFTANTRASGTGVAVVGRYRDDYIIFALEHFFLRALTGSAPADIARCVVHSLTQVLALHPGAFRGVRVAVEGNSSQDSAVAIATHVHTEMHRLLASEGADAGSGPELLFYHCEPPGSAVLYPFFLLNKQKTPAFEHFIKKFNSGGVMASQEIVSATVRLQTDPVEYLLEQLNNLTETVSPNTDVRTYSGKRNGASDDLMVAVIMAIYLAAQAGPPHTFAPITRVS chain 2: MAAPVSEPTVARQKLLALLGQVQTYVFQIELLRRCDPHIGRGKLPQLKLNALQVRALRRRLRPGLEAQAGAFLTPLSVTLELLLEYAWREGERLLGSLETFATAGDVAAFFTETMGLARPCPYHQRVRLDTYGGTVHMELCFLHDVENFLKQLNYCHLITPSRGATAALERVREFMVGAVGSGLIVPPELSDPSHPCAVCFEELCVTANQGATIARRLADRICNHVTQQAQVRLDANELRRYLPHAAGLSDADRARALSVLDHALARTAGGDGQPHPSPENDSVRKEADALLEAHDVFQATTPGLYAISELRFWLASGDRAGQTTMDAFASNLTALARRELQQETAAVAVELALFGRRAEHFDRAFGSHLAALDMVDALIIGGQATSPDDQIEALIRACYDHHLTTPLLRRLVSPEQCDEEALRRVLARMGAGGAADAPKGGAGPDDDGDRVAVEEGARGLGAPGGGGEDEDRRRGPGGQGPETWGDIATQAAADVRERRRLYADRLTKRSLASLGRCVREQRGELEKMLRVSVHGEVLPATFAAVANGFAARARFCALTAGAGTVIDNRSAPGVFDAHRFMRASLLRHQVDPALLPSITHRFFELVNGPLFDHSTHSFAQPPNTALYYSVENVGLLPHLKEELARFIMGAGGSGADWAVSEFQRFYCFDGISGITPTQRAAWRYIRELIIATTLFASVYRCGELELRRPDCSRPTSEGRYRYPPGVYLTYDSDCPLVAIVESAPDGCIGPRSVVVYDRDVFSILYSVLQHLAPRLPDGGHDGPP chain 3: MAGREGRTRQRTLRDTIPDCALRSQTLESLDARYVSRDGAHDAAVWFEDMTPAELEVVFPTTDAKLNYLSRTQRLASLLTYAGPIKAPDDAAAPQTPDTACVHGELLAAKRERFAAVINRFLDLHQILRG | – | 6 and 12
